# B1: Recombinant human IL-12 (ligand)
# chain 1: RNLPVATPDPGMFPCLHHSQNLLRAVSNMLQKARQTLEFYPCTSEEIDHEDITKDKTSTVEACLPLELTKNESCLNSRETSFITNGSCLASRKTSFMMALCLSSIYEDLKMYQVEFKTMNAKLLMDPKRQIFLDQNMLAVIDELMQALNFNSETVPQKSSLEEPDFYKTKIKLCILLHAFRIRAVTIDRVMSYLNAS
# chain 2: IWELKKDVYVVELDWYPDAPGEMVVLTCDTPEEDGITWTLDQSSEVLGSGKTLTIQVKEFGDAGQYTCHKGGEVLSHSLLLLHKKEDGIWSTDILKDQKEPKNKTFLRCEAKNYSGRFTCWWLTTISTDLTFSVKSSRGSSDPQGVTCGAATLSAERVRGDNKEYEYSVECQEDSACPAAEESLPIEVMVDAVHKLKYENYTSSFFIRDIIKPDPPKNLQLKPLKNSRQVEVSWEYPDTWSTPHSYFSLTFCVQVQGKSKREKKDRVFTDKTSATVICRKNASISVRAQDRYYSSSWSEWASVPCS
# modifications: ¹²⁵I label (Iodogen method) where used as tracer
# notes: 75-KDa heterodimer of p35 and p40; also called HuIL-12; HUIL-12
# Legend:
# [1] = target: T1, recombinant human IL-12 receptor (clone No. 5, SEQ ID NO:2) expressed in COS cells (human); test: equilibrium binding of labelled human IL-12 to COS cells expressing clone 5, Scatchard, single site (Figure 19A)
# T1 construct: 662 amino acid precursor; signal peptide cleavage is only predicted (after Gln20, Ala23 or Cys24); On COS cells present as monomers and disulfide-bonded dimers/oligomers; also called rIL-12R; human rIL-12R
# [2] = target: T2, natural human IL-12 receptor on IL-12R positive human cells (human, UniProt P42701 24-662); test: steady state 125I-IL-12 binding to Kit-225 cells, Scatchard, site 2 of 3
# T2 construct: whole, on cells; IL-12 sees up to 3 classes of sites on these cells; also called natural IL-12R
# [3] = target: T2, natural human IL-12 receptor on IL-12R …; test: steady state 125I-IL-12 binding to Kit-225 cells, Scatchard, site 3 of 3
# [4] = target: T2, natural human IL-12 receptor on IL-12R …; test: steady state 125I-IL-12 binding to K6 cells, Scatchard, site 1 of 3
# [5] = target: T2, natural human IL-12 receptor on IL-12R …; test: steady state 125I-IL-12 binding to PHA-PBMC (5-7 days), Scatchard, site 3 of 3
# [6] = target: T1, recombinant human IL-12 receptor (clone …); test: steady state binding of 125I-IL-12 to COS cells expressing rIL-12R, Scatchard (Figure 4A)
# [7] = target: T3, human IL-12 receptor subunit stably expressed on murine CTLL cells (human); test: IL-12 binding to murine CTLL cells stably expressing the IL-12 receptor subunit
# T3 construct: CTLL transfectants express only receptor subunit monomers; also called CTLL transfectant; CTLL cell transfectant
# [8] = target: T2, natural human IL-12 receptor on IL-12R …; test: steady state 125I-IL-12 binding to Kit-225 cells, Scatchard, site 1 of 3
# [9] = target: T2, natural human IL-12 receptor on IL-12R …; test: steady state 125I-IL-12 binding to YT cells, Scatchard, site 1 of 2
# [10] = target: T2, natural human IL-12 receptor on IL-12R …; test: steady state 125I-IL-12 binding to PHA-PBMC (5-7 days), Scatchard, site 2 of 3
# [11] = target: T2, natural human IL-12 receptor on IL-12R …; test: steady state 125I-IL-12 binding to YT cells, Scatchard, site 2 of 2
# [12] = target: T2, natural human IL-12 receptor on IL-12R …; test: steady state 125I-IL-12 binding to K6 cells, Scatchard, site 2 of 3
# [13] = target: T4, detergent solubilized IL-12R from IL-12R positive human cells (human, UniProt P42701 24-662); test: steady state binding of 125I-IL-12 to IL-12R immunoprecipitated by immobilized 2-4E6 from detergent extract of K6 cells, Scatchard
# T4 construct: Whole natural receptor protein in detergent extract, not a truncated soluble form; also called soluble IL-12R; approximately 90 kDa protein
# [14] = target: T2, natural human IL-12 receptor on IL-12R …; test: steady state 125I-IL-12 binding to K6 cells, Scatchard, site 3 of 3
# [15] = target: T2, natural human IL-12 receptor on IL-12R …; test: steady state 125I-IL-12 binding to PHA-PBMC (5-7 days), Scatchard, site 1 of 3
binder,measurement,setting,value
B1,Kd,[1],3.4 nM
same,Kd,[2],0.21 nM
same,Kd,[3],2.36 nM
same,Kd,[4],0.016 nM
same,Kd,[5],1.8 nM
same,Kd,[6],2 to 6 nM
same,Kd,[7],≥ 50 nM
same,Kd,[8],0.023 nM
same,Kd,[9],0.006 nM
same,Kd,[10],0.084 nM
same,Kd,[11],0.109 nM
same,Kd,[12],0.057 nM
same,Kd,[13],0.188 nM
same,Kd,[14],2.4 nM
same,Kd,[15],0.018 nM

# From patent EP0638644A1 (F. HOFFMANN-LA ROCHE AG, dated 1995)
